{"source": "patent US20090221530A1", "about": "“Relaxase Modulators and Methods of Using Same” (priority 2005, published 2009)", "assay_in_all_cases": "cleavage_in_vitro", "key": {"[1]": {"tested_on": "TraI wild-type (full length or N300) (Escherichia coli F plasmid)", "details": "crossover 100%; 6 mM MgCl2, 150 mM NaCl, pH 7.5, 37 C"}, "[2]": {"tested_on": "TraI D81N D81N (Escherichia coli F plasmid)", "details": "crossover 10%; in vivo transfer 0.0030%; printed DB1N in table; 6 mM MgCl2, 37 C"}, "[3]": {"tested_on": "TraI K265M K265M (Escherichia coli F plasmid)", "details": "in vivo transfer 59%; 6 mM MgCl2, 37 C"}, "[4]": {"tested_on": "TraI H159Q H159Q (Escherichia coli F plasmid)", "details": "crossover 95%; text calls this no change; 6 mM MgCl2, 37 C"}, "[5]": {"tested_on": "TraI H159E H159E (Escherichia coli F plasmid)", "details": "crossover eliminated per text (nd in table); in vivo transfer 0.0010%; 6 mM MgCl2, 37 C"}}, "data": [{"substance": "oriT 22-mer", "values": [{"measurement": "activity", "setting": "[1]", "value": 100, "unit": "% cleavage"}, {"measurement": "activity (% of WT cleavage)", "setting": "[2]", "value": 53}, {"measurement": "activity (% of WT cleavage)", "setting": "[3]", "value": 100}, {"measurement": "activity (% of WT cleavage)", "setting": "[4]", "value": 55}, {"measurement": "activity (% of WT cleavage)", "setting": "[5]", "value": 8.5}]}]}
